Assay results: the DeepSol protein solubility set

Test: soluble on expression in E. coli; label from the status in PepcDB or PDB records
With “MTGKLPKACVIGAGCSGFTTIKRLKDYGIPYDCFEMSDEVGGNWYYKNPNGLSACYESLHIDTSKWRLAFEDFPVPKDWPDFPHHAQLFQYFKDYVDHFGLRPTITFNTKVESAKRTADGLWAVTLSGGETQFYDVLFVCNGHHWDPRVPEYPGEFDGPAFHAHAYCDPFDPVDMRGKNVVVVGMGNSAMDIASELSQRPIAKNLWVSARRGVWVFPKYLNGKPADKTALPAWMPRKLGVALSRSVLKKTIGRMEDYGLPKPDHEPLEAHPSVSGEFLTRAGCGDIKFKPAIKALEGKRVRFTDDSVEDVDAIVFATGYKISFPFFDDPALLPDADHRLPLFKRMMKPEVPNLFYMGLAQPLPTLVNFAEQQAKLAAAYLAGQYALPPPAEMARITAKDEHRHTGHFYDSARHTIQVDFNVYCADLKKEIAKGEARARNAGGKLPVAARAEGQALAAELEHHHHHH” the “soluble on expression in E. coli” value was “soluble”. In the case of “MRVLISPWGDFRKWKVAKYTFSGKSLESRSTLPIMVDVIRPQETIIIVPDTLSSDFSSQESMWNSVKDEVKEFTNQLGVEDVKIIVVPGSGSFSNGSFFGNPMDAYMFLLYELAKELPLEIKEVHLDVTHGLNYLTFFTVRVVQELLGILSIRKGVVLKTYSSDPFVDGSVRHLRVNLIEEATIDPKPLSEFLEGKFLVNYSMDRVEFGEIARRLKAKELDLGRINSWIASLKHGLPLVFTTMYPQEGEVEGVLEDVVAKFLEGFNVGEGKVVRSISLGKDFGSLAKLYFQLRVLKDLKEMYNLPKDEASVEELLKISEEIFTGRIKHSTKVELDNVANRVEKTEGWVKLSEFFKNANPQVDPRNFFAHAGLEANLVEVKRNGELYLRYTKGKVRWGGKEEKAEKVIREILTSRRWF”, the “soluble on expression in E. coli” value is reported as “soluble”. With “MGSDKIHHHHHHMHYEHSRKGNHMIKINHLTITQNKDLRDLVSDLTMTIQDGEKVAIIGEEGNGKSTLLKILMGEALSDFTIKGNIQSDYQSLAYIPQKVPEDLKKKTLHDYFFLDSIDLDYSILYRLAEELHFDSNRFASDQEIGNLSGGEALKIQLIHELAKPFEILFLDEPSNDLDLETVDWLKGQIQKTRQTVIFISHDEDFLSETADTIVHLRLVKHRKEAETLVEHLDYDSYSEQRKANFAKQSQQAANNQRAYDKTMEKHRRVKQNVETALRATKDSTAGRLLAKKMKTVLSQEKRYEKAAQSMTQKPLEEEQIQLFFSDIQPLPASKVLVQLEKENLSIDDRVLVQKLQLTVRGQEKIGIIGPNGVGKSTLLAKLQRLLNDKREISLGFMPQDYHKKLQLDLSPIAYLSKTGEKEELQKIQSHLASLNFSYPEMQHQIRSLSGGQQGKLLLLDLVLRKPNFLLLDEPTRNFSPTSQPQIRKLFATYPGGLITVSHDRRFLKEVCSIIYRMTEHGLKLVNLEDL” the “soluble on expression in E. coli” value was “not soluble”. With “ATLKQLDGIHVTILHKEEGAGLGFSLAGGADLENKVITVHRVFPNGLASQEGTIQKGNEVLSINGKSLKGTTHHDALAILRQAREPRQAVIVTRKLTPEAMPDLNS” the “soluble on expression in E. coli” value was “soluble”. With “MVTKEVGHDFLARLGKKRLRPGGVEATNWLIEQGQFSQDCHVLEVACNRCTTAIELAKTFGCQIDAVDLNPKVVKEAQERVAVEGLTRHITVSQASALSLPFPDNHFDIVINEAMLTMLNAQAKEKALNEYWRVLKPGGRLLTHDVAYEDPKTRQVLDELRQTIHVNVAPLSLTGWQALYQEHGFSQVTYHHGKMSLMTPRGMIKDEGLMNTLNIMRRGLKKENRQQFLKMRRFFTRTGKNLCYIAVKSVK” the “soluble on expression in E. coli” value was “not soluble”. With “MGSDKIHHHHHHMNLKTTLGLLAGRSSHFVLSRLGRGSTLPGKVALQFDKDILQNLAKNYEIVVVTGTNGKTLTTALTVGILKEVYGQVLTNPSGANMITGIATTFLTAKSSKTGKNIAVLEIDEASLSRICDYIQPSLFVITNIFRDQMDRFGEIYTTYNMILDAIRKVPTATVLLNGDSPLFYKPTIPNPIEYFGFDLEKGPAQLAHYNTEGILCPDCQGILKYEHNTYANLGAYICEGCGCKRPDLDYRLTKLVELTNNRSRFVIDGQEYGIQIGGLYNIYNALAAVAIARFLGADSQLIKQGFDKSRAVFGRQETFHIGDKECTLVLIKNPVGATQAIEMIKLAPYPFSLSVLLNANYADGIDTSWIWDADFEQITDMDIPEINAGGVRHSEIARRLRVTGYPAEKITETSNLEQVLKTIENQDCKHAYILATYTAMLEFRELLASRQIVRKEMN” the “soluble on expression in E. coli” value was “not soluble”. In the case of “MSSTPQFLRWYEQNKPVPYRSVLQEKFEPGQTLIVKGSTIDESQRFTINLHSKTADFSGNDVPLHVSVRFDEGKIVLNSFSNGEWGKEERKSNPIKKGDSFDIRIRAHDDRFQIIVDHKEFKDYEHRLPLSSISHLSIDGDLYLNHVHWGGKYYPVPYESGLANGLPVGKSLLVFGTVEKKAKRFHVNLLRKNGDISFHFNPRFDEKHVIRNSLAANEWGNEEREGKNPFEKGVGFDLVIQNEEYAFQVFVNGERYISFAHRADPHDIAGLQISGDIELSGIQIQ”, the “soluble on expression in E. coli” value is reported as “not soluble”. In the case of “MGEWEIIDIGPFTQNLGKFAVDEENKIGQYGRLTFNKVIRPCMKKTIYENEGFREIKGYEYQLYVYASDKLFRADISEDYKTRGRKLLRFNGPVPPP”, the “soluble on expression in E. coli” value is reported as “soluble”. For “MAHHHHHHMKGKGPIKIVLFGAPGVGKGTFAEILSKKENLKHINMGNILREEIKRKTTIGKEIDKVVTSGNLVGDDLIIRIVKDEIAKVTIQKDCYFKGFILDGFPRNLFQCNELAKITNIDLFINIYMPRHILIKKIMGRRICNDCNRNFNVVHIREDSYDMLPILPPQDCETCKGNPKLQTRSDDSEEIVAHRLNTYELTNSPLINFFKNSNCNFVDFEIKRGLQDFDSFYRIVSQNL”, the “soluble on expression in E. coli” value was “not soluble”. In the case of “MGSDKIHHHHHHMLSRIAESLFWIGRYVERADGTARILDVHLERLNHLPTEERDNVARELLAVMGARPESDEFGLEELLHALAYDKQSATSIAGSLGAARENARRARETVSSGLWESLNTTYYGLNQHRKDVVGTYRFCHWVLERTAMVSGLADTTVSHDDSWLFLALGRSLERADMTARMLSTRDVLSAGMSWVNMLRCAGAYESFLRTRRAAFGDQHAAEFLLLDRLFPRSIVYALRDADECLAKLDPSAQRVGFINDARRIVGQARTFLEFHRTDDLMSELPEHMERVQKAVSQASDAISRKYFNQADELAWVGEVS”, the “soluble on expression in E. coli” value is reported as “not soluble”. In the case of “GPQLDHVDIDLTDKAAMQDGARTFANYCMGCHSAKFQRYERVATDLGIPADLMMEKLVFTGAKIGDHMDIGMKPADAKTWFGAAPPDLTLVARVRGTDWLYSYLRSFYEDPKRPWGVNNVIFPNVGMPNVLAPLQGRQVIGCKQVQVVEDGKKQFDPLTGTPLTHEACDQLTVVPKTGELNEAQFDEKVKNLVTFLAYSANPNKLASERIG”, the “soluble on expression in E. coli” value is reported as “not soluble”. For “MAQSEISKREKGRALITVANNVAGFNLWKRLVEEGYDVDAILPSEDKYNLLLSELVSRKNKKYDFIVNTVDRHDYAVVTNKMLKWLYPTEKIIFISSDLVYEPRPGKKKENDNAYPPTMEGKYFLEAESALDVNSDLVLRVGLVTGRCVPNILTNTINLSRANMSIDLSGAVVRNFISNADLSEYIIRLLDKNGIYNASAKSMTPRDFALELCAKINVNCKLRRTTDDKVFDYSMDTTKIELTTGYYTKDIFANISSGLYLLG”, the “soluble on expression in E. coli” value was “soluble”. In the case of “MAHHHHHHMQPVKTAVGIRQGLRRCTQLPNKSFRILHVSPRQLTVSTGGDDILKEQRRLQQHGTCTRNNIFRHGVVCACNLLQGYTISIKTNSLIHHSLNFTGNTKTQASKDTHLSNKLYQTFRIIHLHPPIRINVHQWCIGIQNECMAVILHIHRPMFI”, the “soluble on expression in E. coli” value is reported as “not soluble”. For “MPYTFENSEALLKNLKDAAPYISAAERFASFKGFVYDKRINIACTSEKLARAGFYSTASPEFPASAKCPFCMLEINFEQCDDPWEKHKSGSPHCEFVMIGEIEESELSFRIISNLAIRHATVRLYEELLGIVATLENGDIANENPITRADATRKLISFRSSSKLLTFDHRLATFQNFIFDKKRNVKCTSKKLAKAGWFSIANKKDKTSAKCPFCLVELDFDESDDPWEEHQKFSASCDFIKLGKLDEKKWTENEALMLGARITIMQKYEKGSWLIDELEKENRIDEIIKIRKIMIKPNHVLKRRRCSI”, the “soluble on expression in E. coli” value was “not soluble”. With “GMSDPAGKPCIICVAITGSLPTKENNPAVPITLAEQVESTHEAFEAGASIAHCHVRDDEGRPTSDPDRFAALKEGLERHCPGMIVQLSTGGRSGAGQARGAMLPLCPDMASLSVGSNNFPTRVYENPPDLVDWLAAEMLKYDIKPEIEAFDLSHILQAKRMAGDGRLAGTPYVQFVMGVRNAMPADRDVFDYYIHTVRRLFGEDAPWCAAGIGPSQIVLNEWAISSGGHARTGLEDNVRLDRDRLAPSNAALVGRAVELCEKYERPVATWRQARQILGLRMV” the “soluble on expression in E. coli” value was “soluble”. In the case of “HKGTLYVVATPLGNLDDMTFRAVNTLRNAGAIACEDTRRTSILLKHFGIEGKRLVSYHSFNEERAVRQVIELLEEGSDVALVTDAGTPAISDPGYTMASAAHAAGLPVV”, the “soluble on expression in E. coli” value is reported as “not soluble”. In the case of “MSATTTLKEQVLTTLKREQANAVVMYLNYKKYHWLTYGPLFRDLHLLFEEQGSEVFAMIDELAERSLMLDGQPVADPADYLKVATVTPSSGQLTVKQMIEEAIANHELIITEMHQDAEIATEAGDIGTADLYTRLVQTHQKHRWFLKEFLAKGDGLVS”, the “soluble on expression in E. coli” value is reported as “soluble”. For “MQPYWAAIEADIERYLKKSITIRPPETVFGPMHHLTFAAPATAASTLCLAACELVGGDRSQAMAAAAAIHLVHAAAYVHEHLPLTDGSRPVSKPAIQHKYGPNVELLTGDGIVPFGFELLAGSVDPARTDDPDRILRVIIEISRAGGPEGMISGLHREEEIVDGNTSLDFIEYVCKKKYGEMHACGAACGAILGGAAEEEIQKLRNFGLYQGTLRGMMEMKNSHQLIDENIIGKLKELALEELGGFHGKNAELMSSLVAEPSLYAAHHHHHHHH”, the “soluble on expression in E. coli” value was “soluble”. With “GMSRTNINFNNKRTELANKIWDIFIANGYENTTLAFIINKLGISKGALYHYFSSKEECADAAIENRVAFFSNEVLKESEEGLNSIERLKKILLAGIKITSVNEQVKEINSPSNKIFHQKLMVAIIKYFAPIYADIISQGNEEGVFKVKYPLETAEIILTLSHFYLDEDLFKWKKEDMSLKLTAFKETLIKILDADEDTFDFIK” the “soluble on expression in E. coli” value was “soluble”. In the case of “MSLELNGRALSSTIAPRTQAQRILQTQKISSTDLVVVIGLGNPHLIFEVHKSLEPGQVLLLVDEYPELIFPLWDGILEPVMDVPGRHLFLGHSALNLLWNYLESLPVERVSGIRVFRNTASTALNETYYSDLEIKIRKILSSKMSDLLTKFEFERIWVRNTFVNTANFPDSKNPRTRIESLKGKFLDTPAMLVSAGPSLRSQCEWISKVRDKVFLFSCDTSFKALLKFGIVPDGVITLDAQTHSFFHFMGAESSNVPLFADLVSSPSILRSQKFTKIVHSLSAKYVVDASGEFKREVTAGSKTAEKLLGPIGDIQSGGSVATTAFDLLRNLGCKPIFLVGQDLAYSGREEGHHHHHH”, the “soluble on expression in E. coli” value is reported as “not soluble”. In the case of “MEVEAFAHSVAPLAPRLKRVAYSILDDEEAAADVSQEALMRLWINRERLGGYDSIEAVAVTTARRIALDMLRKEGRMEPLPDDLPFSDHAPTPQGVLEQSETMRLVEAAIEALPPLQRMTFRLKEIEGYESEVIARLVGVKVEAVYTNLSRARRALRTALALQLKR”, the “soluble on expression in E. coli” value is reported as “not soluble”. For “NTYAPIETLKRLYSEAFRLPDVVGISIGTRIDSVNHEILDFLGEYAREKEVWIEYGIQSIHDRTLEGINRGHDSSEMEYWIKETQNRGIKVCVHLIYGLPGESEEMMLETLDKMIEWQAESIKIHPLYVMAHTALATLYKKGEYTPITLERYAWLIGESMKRIPK”, the “soluble on expression in E. coli” value was “not soluble”.
